Laboratory results as given in paper PMC4140749, “Identification of a Novel Hypocholesterolemic Protein, Major Royal Jelly Protein 1, Derived from Royal Jelly” (PLoS ONE, 2014).

Biological target: the molecule itself
Experiment: SEC; 10-kDa cut-off royal jelly applied to HiLoad 26/60 Superdex 200 p.g.; 150 mM NaCl, 20 mM phosphate buffer pH 7.5; molecular weight calibrated with standard proteins; peak resolved by 15% SDS-PAGE

B1: major royal jelly protein 1 (natural protein, Apis mellifera, UniProt O18330 20-432, looked up)
chain: NILRGESLNKSLPILHEWKFFDYDFGSDERRQDAILSGEYDYKNNYPSDIDQWHDKIFVTMLRYNGVPSSLNVISKKVGDGGPLLQPYPDWSFAKYDDCSGIVSASKLAIDKCDRLWVLDSGLVNNTQPMCSPKLLTFDLTTSQLLKQVEIPHDVAVNATTGKGRLSSLAVQSLDCNTNSDTMVYIADEKGEGLIVYHNSDDSFHRLTSNTFDYDPKFTKMTIDGESYTAQDGISGMALSPMTNNLYYSPVASTSLYYVNTEQFRTSDYQQNDIHYEGVQNILDTQSSAKVVSKSGVLFFGLVGDSALGCWNEHRTLERHNIRTVAQSDETLQMIASMKIKEALPHVPIFDRYINREYILVLSNKMQKMVNNDFNFDDVNFRIMNANVNELILNTRCENPDNDRTPFKISIHL
notes: Major royal jelly protein 1 (MRJP1), Apis mellifera; 55 kDa on SDS-PAGE; Native protein isolated from royal jelly and identified by MALDI-TOF/MS; The introduction calls MRJPs glycoproteins; also called MRJP1; major RJ protein 1; source: purified from royal jelly (10-kDa cut-off RJ, size-exclusion chromatography on Superdex 200)
  stoichiometry N: ~5
